Laboratory results taken from paper PMC13077772 (2025).

Molecular target: melanoma-associated antigen 3 (MAGE-A3) peptide presented by HLA-A*01:01 (human | )
Assay: SPR

B1: mage-513, purified soluble protein (designed binder)
chain: LTVEEAIRLLLETQRRYPELGPEERQVADGALRVASLLLDIIATRRLLGDDDKELEKQLLKRIERLFTAPLPERRRLVEELEEPVLEEAAQAARELVKREQQ
modifications: heavy chain HLA-A*01:01 ectodomain taken by convention from the MAGE-A3/HLA-A1 structure 5BRZ (candidate P04439 is a different allele, A*03:01)
With B1 as the binder, how does the Kd read?
Its Kd is 29 nM.
